The record followed here is the supplement of paper PMC9112550, “Optimization of the antimicrobial peptide Bac7 by deep mutational scanning” (BMC Biology, 2022).
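Further: peptides expressed intracellularly from a pBAD plasmid library in pooled LB shake-flask culture, induced with 0.3% L-arabinose, DNA abundance read by NGS, three biological replicates, DESeq2 with apeglm shrinkage.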

This data set concerns Escherichia coli TOP10. Put plainly: shrunken log2 fold change of peptide-encoding DNA abundance (4.5 h post-induction vs induction); higher = less antimicrobial activity (less host growth inhibition). The note with it: time post-induction: 4.5 h; library: site-saturation at positions 5, 18, 19, 20.
In the case of RRIRPRPPRLPRPRPRPCQSPRP, the “shrunken log2 fold change” value was -0.123.

Regarding RRIRMRPPRLPRPRPRPQDSPRP, the “shrunken log2 fold change” value worked out at 0.051.

As to RRIRERPPRLPRPRPRPGHEPRP, the “shrunken log2 fold change” value came out at 0.159.

Turning to RRIRSRPPRLPRPRPRPCKNPRP, the “shrunken log2 fold change” value was -0.283.

For the sequence RRIRYRPPRLPRPRPRPMSGPRP, the “shrunken log2 fold change” value was -0.748.

On to RRIRKRPPRLPRPRPRPCPMPRP, for which the “shrunken log2 fold change” value was -0.15.

As to RRIRFRPPRLPRPRPRPGHLPRP, the “shrunken log2 fold change” value was -0.459.

For RRIRGRPPRLPRPRPRPGCHPRP, the “shrunken log2 fold change” value came out at 0.549.

As for RRIRLRPPRLPRPRPRPMNEPRP, the “shrunken log2 fold change” value was -0.00493.

On to RRIRMRPPRLPRPRPRPKMWPRP, for which the “shrunken log2 fold change” value worked out at 0.643.

As to RRIRIRPPRLPRPRPRPMMAPRP, the “shrunken log2 fold change” value turned out to be 0.0709.

As for RRIRWRPPRLPRPRPRPTVWPRP, the “shrunken log2 fold change” value was 0.533.

As for RRIRQRPPRLPRPRPRPLDNPRP, the “shrunken log2 fold change” value was -0.151.

As to RRIRQRPPRLPRPRPRPFRVPRP, the “shrunken log2 fold change” value was -0.153.

For the sequence RRIRRRPPRLPRPRPRPEFSPRP, the “shrunken log2 fold change” value is 0.0744.

On to RRIRCRPPRLPRPRPRPAELPRP, for which the “shrunken log2 fold change” value was 0.0853.

Consider RRIRGRPPRLPRPRPRPAVFPRP, for which the “shrunken log2 fold change” value came to 0.878.

RRIRFRPPRLPRPRPRPLFCPRP: the “shrunken log2 fold change” value is -0.462.

As for RRIRVRPPRLPRPRPRPQGFPRP, the “shrunken log2 fold change” value was -0.0921.

RRIRPRPPRLPRPRPRPDWKPRP: the “shrunken log2 fold change” value came to 0.286.

RRIRNRPPRLPRPRPRPGLRPRP: the “shrunken log2 fold change” value came to 0.0575.

For the sequence RRIRGRPPRLPRPRPRPISIPRP, the “shrunken log2 fold change” value was found to be 0.199.

For the sequence RRIRTRPPRLPRPRPRPKIKPRP, the “shrunken log2 fold change” value was -0.561.

For RRIRCRPPRLPRPRPRPQNPPRP, the “shrunken log2 fold change” value is -0.144.

Regarding RRIRWRPPRLPRPRPRPFIMPRP, the “shrunken log2 fold change” value is -0.0374.

On to RRIRLRPPRLPRPRPRPDYGPRP, for which the “shrunken log2 fold change” value is -0.23.

With RRIRPRPPRLPRPRPRPCMYPRP, the “shrunken log2 fold change” value is -0.226.

On to RRIRHRPPRLPRPRPRPQYAPRP, for which the “shrunken log2 fold change” value was -0.00149.

Consider RRIRMRPPRLPRPRPRPHESPRP, for which the “shrunken log2 fold change” value was 0.432.

For the sequence RRIRKRPPRLPRPRPRPCYFPRP, the “shrunken log2 fold change” value was -0.00436.

Consider RRIRTRPPRLPRPRPRPKTVPRP, for which the “shrunken log2 fold change” value was -0.0654.

Take RRIRPRPPRLPRPRPRPTVKPRP: the “shrunken log2 fold change” value is -0.00591.

As for RRIRNRPPRLPRPRPRPVGYPRP, the “shrunken log2 fold change” value came out at 0.025.

On to RRIRDRPPRLPRPRPRPSNNPRP, for which the “shrunken log2 fold change” value was -0.487.

With RRIRWRPPRLPRPRPRPYQDPRP, the “shrunken log2 fold change” value was -0.411.

With RRIRDRPPRLPRPRPRPLAAPRP, the “shrunken log2 fold change” value is 0.913.

RRIRERPPRLPRPRPRPRNDPRP: the “shrunken log2 fold change” value was -0.478.

With RRIRHRPPRLPRPRPRPYPVPRP, the “shrunken log2 fold change” value was -0.00992.

In the case of RRIRGRPPRLPRPRPRPQLRPRP, the “shrunken log2 fold change” value came out at 0.139.

Regarding RRIRIRPPRLPRPRPRPERDPRP, the “shrunken log2 fold change” value is -0.175.

RRIRARPPRLPRPRPRPDVLPRP: the “shrunken log2 fold change” value was 0.579.

Regarding RRIRSRPPRLPRPRPRPPPLPRP, the “shrunken log2 fold change” value was 0.739.

Take RRIRLRPPRLPRPRPRPQVAPRP: the “shrunken log2 fold change” value worked out at 0.0825.

Regarding RRIRERPPRLPRPRPRPKAWPRP, the “shrunken log2 fold change” value was determined as 0.0873.

Consider RRIRPRPPRLPRPRPRPCLLPRP, for which the “shrunken log2 fold change” value is -0.258.

RRIRYRPPRLPRPRPRPQCYPRP: the “shrunken log2 fold change” value was -0.0301.

On to RRIRVRPPRLPRPRPRPTYFPRP, for which the “shrunken log2 fold change” value is -0.0832.

In the case of RRIRMRPPRLPRPRPRPASYPRP, the “shrunken log2 fold change” value stood at 0.0757.

As to RRIRFRPPRLPRPRPRPGNWPRP, the “shrunken log2 fold change” value came out at 0.724.

With RRIRCRPPRLPRPRPRPRFGPRP, the “shrunken log2 fold change” value worked out at 0.316.
